IntAct's records for PubMed 28380382

B1: Complex III assembly factor LYRM7 (Homo sapiens), Q5U5X0 (parent)
chain: MGRAVKVLQLFKTLHRTRQQVFKNDARALEAARIKINEEFKNNKSETSSKKIEELMKIGSDVELLLRTSVIQGIHTDHNTLKLVPRKDLLVENVPYCDAPTQKQ
partner: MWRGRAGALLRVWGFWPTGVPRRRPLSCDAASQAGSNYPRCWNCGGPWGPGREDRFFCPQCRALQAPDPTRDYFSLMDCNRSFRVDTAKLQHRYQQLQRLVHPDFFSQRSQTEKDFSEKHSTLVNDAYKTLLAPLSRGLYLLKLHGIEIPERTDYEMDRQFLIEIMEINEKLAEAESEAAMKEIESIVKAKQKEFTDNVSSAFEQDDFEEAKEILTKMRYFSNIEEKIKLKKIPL

Variants of: B1
Conditions: with hsc20_human HSCB

Row | Variant | effect of a mutation on the interaction
1 | D25N | with no effect
2 | L10A;F11A;K12A | disrupting interaction strength
3 | V21A;F22A;K23A | with no effect
